# Assay results published in paper PMC7525151, “Fumarase From Cyanidioschyzon merolae Stably Shows High Catalytic Activity for Fumarate Hydration Under High Temperature Conditions” (Frontiers in Microbiology, 2020).
# Tested on: O=C(O)C[C@H](O)C(=O)O
# Experiment: purified protein
# Settings: L-malate dehydration
# [1] = 100 mM Tris-HCl pH 8.5, 52 °C, pH 8.5
# [2] = 100 mM Tris-HCl pH 7.5, 50 °C, pH 7.5
# Chain of TeFum (Thermosynechococcus vestitus BP-1) (chain, as listed by the source): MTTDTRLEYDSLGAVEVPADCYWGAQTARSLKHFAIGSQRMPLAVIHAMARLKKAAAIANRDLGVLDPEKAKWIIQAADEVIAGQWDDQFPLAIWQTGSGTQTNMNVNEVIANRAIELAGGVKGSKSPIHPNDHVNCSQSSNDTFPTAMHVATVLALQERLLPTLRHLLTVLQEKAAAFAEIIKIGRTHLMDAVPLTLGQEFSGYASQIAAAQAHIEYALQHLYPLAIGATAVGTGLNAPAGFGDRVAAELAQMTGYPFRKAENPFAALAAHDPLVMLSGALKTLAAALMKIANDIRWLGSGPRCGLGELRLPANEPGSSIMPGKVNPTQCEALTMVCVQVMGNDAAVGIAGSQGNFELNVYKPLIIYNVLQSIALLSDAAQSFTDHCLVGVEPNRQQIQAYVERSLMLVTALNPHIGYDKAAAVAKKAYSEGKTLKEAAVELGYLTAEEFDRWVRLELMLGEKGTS
# Chain of CmFUM (Cyanidioschyzon merolae strain 10D) (chain, as listed by the source): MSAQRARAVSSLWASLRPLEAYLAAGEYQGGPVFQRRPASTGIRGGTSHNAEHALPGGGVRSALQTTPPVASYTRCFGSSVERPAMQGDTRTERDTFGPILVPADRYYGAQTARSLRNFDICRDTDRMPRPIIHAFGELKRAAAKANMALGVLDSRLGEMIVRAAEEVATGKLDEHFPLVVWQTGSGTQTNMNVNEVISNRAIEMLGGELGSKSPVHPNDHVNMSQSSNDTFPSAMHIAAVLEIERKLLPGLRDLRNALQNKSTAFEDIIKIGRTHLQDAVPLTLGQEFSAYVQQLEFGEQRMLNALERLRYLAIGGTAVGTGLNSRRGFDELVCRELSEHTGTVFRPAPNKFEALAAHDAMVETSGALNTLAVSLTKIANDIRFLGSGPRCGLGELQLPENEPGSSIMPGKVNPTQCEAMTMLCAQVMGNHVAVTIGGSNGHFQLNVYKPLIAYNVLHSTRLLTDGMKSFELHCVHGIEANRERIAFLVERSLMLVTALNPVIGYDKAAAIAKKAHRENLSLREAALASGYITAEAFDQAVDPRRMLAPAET
Substance,Km [1] [mM],kcat [1] [s⁻¹],kcat/Km [1] [M⁻¹ s⁻¹],Km [2] [mM],kcat [2] [s⁻¹],kcat/Km [2] [M⁻¹ s⁻¹]
CmFUM (Cyanidioschyzon merolae strain 10D),1.49 ± 0.12,244,164000,–,–,–
TeFum (Thermosynechococcus vestitus BP-1),–,–,–,0.20 ± 0.01,15,76000
